Substrate: CSCC[C@H](NC(C)=O)C(=O)N[C@H](C(=O)N[C@@H](CC(=O)O)C(=O)N[C@@H](Cc1ccccc1)C(=O)N[C@@H](Cc1ccc(O)cc1)C(=O)N[C@H](C(=O)N1CCC[C@H]1C(=O)N[C@H](C(=O)N[C@@H](CO)C(=O)N[C@@H](CC(C)C)C(=O)N[C@@H](CS)C(=O)N[C@H](C(=O)N1CCC[C@H]1C(=O)N[C@@H](CO)C(=O)N[C@@H](CCCNC(=N)N)C(=O)N[C@@H](C)C(=O)N[C@@H](C)C(=O)N[C@@H](CC(C)C)C(=O)N[C@@H](CC(C)C)C(=O)N[C@H](C(=O)NCC(=O)N[C@@H](CCCNC(=N)N)C(=O)N[C@@H](CO)C(N)=O)[C@@H](C)O)[C@@H](C)O)C(C)C)C(C)C)[C@@H](C)O
Experiment: In vitro assay for FGE with peptide P23 as substrate (MALDI-TOF)
Assay type: biochemical, bovine
Conditions: other: standard conditions; pH 9.0; 37.0 °C
Procedure: For monitoring the activity of FGE, the N-acetylated and C-amidated 23mer peptide P23 ([…]) (SEQ ID NO:33) was used as substrate. The conversion of the Cysteine residue in position 11 to FGly was monitored by MALDI-TOF mass spectrometry. A 6 μM stock solution of P23 in 30% acetonitrile and 0.1% trifluoroacetic acid (TFA) was prepared. Under standard conditions 6 pmol of P23 were incubated at 37° C. with up to 10 μl enzyme in a final volume of 30 μl 50 mM Tris/HCl, pH 9.0, containing 67 mM NaCl, 15 μM CaCl2, 2 mM DTT, and 0.33 mg/ml bovine serum albumin. To stop the enzyme reaction 1.5 μl 10% TFA were added. […] Activity (pmol product/h) was calculated on the basis of the peak height of the product divided by the sum of the peak heights of P23 and the product.
We had developed an assay for determining FGE activity in microsome extracts using in vitro synthesized [^35S] […] The quantitation of the product included tryptic digestion, separation of the peptides by RP-HPLC and identification and quantitation of the [^35S]-labeled FGly containing tryptic peptide by a combination of chemical derivatization to hydrazones, RP-HPLC separation and liquid scintillation counting (Fey et al., J. Biol. Chem., 2001, 276:47021-47028). […] The cysteine and the FGly containing forms of P23 could be identified and quantified by matrix-assisted laser desorption/ionisation time of flight (MALDI-TOF) mass spectrometry. […]

B1: FGE (Bos taurus) (protein)
chain: GEEAGPEAGAPSLVGSCGCGNPQRPGAQGSSAAAHRYSREANAPGSVPGGRPSPPTKMVPIPAGVFTMGTDDPQIKQDGEAPARRVAIDAFYMDAYEVSNAEFEKFVNSTGYLTEAEKFGDSFVFEGMLSEQVKSDIQQAVAAAPWWLPVKGANWRHPEGPDSTVLHRPDHPVLHVSWNDAVAYCTWAGKRLPTEAEWEYSCRGGLQNRLFPWGNKLQPKGQHYANIWQGEFPVTNTGEDGFRGTAPVDAFPPNGYGLYNIVGNAWEWTSDWWTVHHSAEETINPKGPPSGKDRVKKGGSYMCHKSYCYRYRCAARSQNTPDSSASNLGFRCAADHLPTTG
notes: the soluble fraction (reticuloplasm) of bovine testis microsomes served as the starting material; from tissue; host or cells: bovine testis rough microsomes, reticuloplasm
Km: 0.013 µM
